Test results from patent US20120316085A1.

Legend:
[1] = biological target: c-Myc-containing recombinant protein; test: SPR (Biacore T200), c-Myc-containing recombinant protein immobilised, soluble Fab injected at 5-80 nM, 1:1 Langmuir fit
[2] = biological target: c-Myc-containing recombinant protein; test: SPR; KD against WT as reference

B1: aM parental murine Fab (Fab, V domains shown)
VH: QIQLVQSGPELKKPGETVRISCKASGYTFTTAGMQWVQKMPGKGLKWIGWINTHSGVPKYAEDFKGRFAFSLETSASTAYLQMTNLNNEDTATYFCARGYGKGGYFAMDYWGQGTSVTVSS
VL: DVVMTQIPFSLPVSLGDQASISCRSSQSLVHSNGNTYLHWYVQKPGQSPKLLIYKVSNRFSGVPDRFSGSGSGTYFTLKISRVEAEDLGVYFCSQSTRVPWTFGGGTKLEIK
Q: For B1, which Kd [1] is on record?
A: 110 nM

Q: And the koff [1]?
A: 0.018 s⁻¹

Q: What about the kon [1] of the same binder?
A: 160000 M⁻¹ s⁻¹

Q: And the Fold change [2]?
A: 1 fold
